Experimental data reported in patent publication US20200247894A1 (Regeneron, published 2020).
Changes are numbered by the printed parent chain.

T1: Human IL2Rγ extracellular domain expressed with a C-terminal myc-myc-hexahistidine tag (human)
T1 construct: also called hIL-2Rg-MMH; hIL-2RG-MMH
T1 chain: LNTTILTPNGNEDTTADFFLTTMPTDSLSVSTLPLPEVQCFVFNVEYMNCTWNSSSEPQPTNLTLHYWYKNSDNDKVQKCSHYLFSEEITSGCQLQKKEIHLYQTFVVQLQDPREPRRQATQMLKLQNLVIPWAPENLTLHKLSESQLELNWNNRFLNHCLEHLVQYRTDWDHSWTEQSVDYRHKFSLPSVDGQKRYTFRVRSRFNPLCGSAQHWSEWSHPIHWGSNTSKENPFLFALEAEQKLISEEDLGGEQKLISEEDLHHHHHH

T2: Macaca fascicularis IL2Rγ extracellular domain expressed with a C-terminal myc-myc-hexahistidine tag (Macaca fascicularis)
T2 construct: also called mfIL-2Rg-MMH; mfIL-2RG-MMH
T2 chain: T1 chain with T14A, A16T, T22S, H141R, T228S

B1: H4H12908P (antibody, human IgG4 S228P, kappa, V domains shown)
VH: EVQLVESGGRLVQPGGSLRLSCEASGFTFSNYGMTWVRQAPGKGLEWVSVISGSDNRKYYAESVKGRFTISRDNSKNTLYLQMNSLRAEDTAVYYCAKLGYSRSSKDFYYGMDVWGQGTTVTVSS
VL: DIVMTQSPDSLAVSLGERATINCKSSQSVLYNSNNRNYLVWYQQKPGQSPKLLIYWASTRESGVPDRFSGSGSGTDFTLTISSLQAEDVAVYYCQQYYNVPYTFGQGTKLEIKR
notes: anti-IL2Rγ monoclonal antibody expressed with human IgG4 Fc
B2: H4H12899P (antibody, human IgG4 S228P, kappa, V domains shown)
VH: QVQLVESGGDLVKPGGSLRLSCATSGFTFSDFYMTWIRQAPGKGLEWISYISNSGSIVKYADSVKGRFTISRDNAKNSLYLQMNSLRAEDTAIYYCARFYGDRWGQGTLVTVSS
VL: DIQLTQSPSFLSASVGDRVTITCWASQGISTFLAWYQQKPGKAPKLLIYAASTLQSGVPSRFSGSGSGTDFTLTISSLQPEDFATYHCQQLNNYPWTFGQGTKVEIKR
notes: as for B1
B3: H4H12900P (antibody, human IgG4 S228P, kappa, V domains shown)
VH: QVQLVESGGGLVKPGGSLRLSCEASGFTFNDFYMTWIRQAPGKGLEWIAYISKSGDKMRYADSVKGRFSTSRDNAKNSLSLQMNSLRAEDTAVYYCARFYGDIWGQGTLVTVSS
VL: B2 VL with G28D, T31S, A34V, K45N, T53A, D70E, T85S, H87Y, Q89E
notes: as for B1
B4: H4H12889P (antibody, human IgG4 S228P, kappa, V domains shown)
VH: EVQLVESGGGLVQPGGSLRLSCAASGFIFSSYEMHWVRQAPGKGLEWISYISSSGTTIYYADSVKGRFTISRDNAKNSLYLHMNSLRAEDTAVYYCTRARITGTFDVFDIWGQGTMVTVSS
VL: DIQMTQSPSSLSASVGDRVTITCRASQSISSYLNWYQQKPGKAPKLLIFAASNLQSGVPSRFSGSRSGTDFTLTISSLQPEDFATYYCQQNYNIPYTFGQGTKLEIKR
notes: anti-IL2Rγ monoclonal antibody expressed with human IgG4 Fc; also called REGN7257
B5: H4H12890P (antibody, human IgG4 S228P, kappa, V domains shown)
VH: EVQLVESGGGLVQPGGSLRLSCAASGFTFNNYAMHWVRQAPGKGLEYVSSISSSGGSTYYEDSVKGRFTISRDNSKNTLYLQMGSLRAEDMAVYYCARSFYGSGTYYDTFDMWGQGTMVTVSS
VL: B4 VL with V15I, S31R, F49Y, N53S, G64A, R66G, N91S, N93S, I94T, Y96F
notes: as for B1
B6: H4H12886P (antibody, human IgG4 S228P, kappa, V domains shown)
VH: EVQLVESGGGLVKPGGSLRLSCAASGFTFSTAWMSWVRQSPGRGLEWVGRMKSKTDGGTTFYAAPVKGRFTISRDDSKNTLYLQMNSLKTEDTAVYYCTTGLVPAFYKYYGVDVWGQGTTVTVSS
VL: DIQMTQSPSSLSASVGDRITITCQASQDITNYLNWYQQKPGKAPNLLIYDASNLVTGVPSRFSGSGSGTDFTFTILSLQPEDIATYYCQQYDSLLTFGPGTKVDIKR
notes: as for B1

Molecular target: T1, Human IL2Rγ extracellular domain …
Assay: SPR Biacore 4000, mAb captured by anti-hFc, HBS-ET, 37C
Description: (§1) Equilibrium dissociation constants (KD values) for IL-2Rγ binding to purified anti-IL2Rγ monoclonal antibodies were determined using a Biacore 4000 instrument equipped with a real-time surface plasmon resonance biosensor. All binding studies were performed in 10 mM HEPES, 150 mM NaCl, 3 mM EDTA, and 0.05% v/v Surfactant Tween-20, pH 7.4 (HBS-ET) running buffer at 25° C. and 37° C. The Biacore sensor surface was first derivatized by amine coupling with a monoclonal mouse anti-human Fc antibody (GE, # BR-1008-39) to capture anti-IL2Rγ monoclonal antibodies.
(§2) The dissociation of monoclonal antibody bound IL2Rγ reagents were monitored for 8-10 minutes in HBS-ET running buffer. Kinetic association (kₐ) and dissociation (kd) rate constants were determined by fitting the real-time sensorgrams to a 1:1 binding model using Scrubber 2.0c curve fitting software. Binding dissociation equilibrium constants (KD) and dissociative half-lives (t_{1/2}) were calculated from the kinetic rate constants as: […]

Binder	100 nM Ag Bound	Kd	koff	kon	t1/2
B1	16 RU	29.2 nM	0.00141 s⁻¹	48300 M⁻¹ s⁻¹	8 min
B2	36 RU	7.27 nM	0.00249 s⁻¹	342000 M⁻¹ s⁻¹	5 min
B3	43 RU	3.66 nM	0.00184 s⁻¹	503000 M⁻¹ s⁻¹	6 min
B4	32 RU	3.99 nM	0.00185 s⁻¹	465000 M⁻¹ s⁻¹	6 min
B5	27 RU	14 nM	0.00133 s⁻¹	95100 M⁻¹ s⁻¹	9 min
B6	52 RU	15.4 nM	0.000956 s⁻¹	61900 M⁻¹ s⁻¹	12 min

Molecular target: T2, Macaca fascicularis IL2Rγ extracellular …
Assay: SPR Biacore 4000, mAb captured by anti-hFc, 37C, dissociation in PBS-T pH 7.4
Description: (§3) The dissociation rate constant (kd) for binding of IL-2Rγ reagents to purified anti-IL2Rγ monoclonal antibodies was determined using a real-time surface plasmon resonance based Biacore 4000 biosensor platform. […] The CM5 Biacore sensor surface derivatized by amine coupling with monoclonal mouse anti-human Fc antibody (GE, Catalog # BR-1008-39) was used to capture anti-IL2Rγ monoclonal antibodies expressed with human IgG4 Fc. All the IL2Rγ reagents were expressed with a C-terminal myc-myc-hexahistidine tag (subsequently referred to with a -MMH suffix). […] The dissociation of bound IL-2Rg-MMH was performed in PBS-T-pH7.4 or PBS-T-pH6.0 running buffers for 6 minutes.
(§4) Dissociation rate constants (kd) in two running buffers were determined by fitting the real-time binding sensorgrams to a 1:1 binding model using Scrubber 2.0c curve-fitting software. Values of dissociation rate for […] mAb binding to hIL-2RG-MMH and mfIL-2RG-MMH at 25° C. and 37° C. in PBS-T-pH7.4 and PBS-T-pH6.0 is shown in Table 2-1 through Table 2-8.

Binder	100 nM Ag Bound (RU)	koff	t1/2
B1	55 RU	0.000514 s⁻¹	22 min
B2	160 RU	0.000552 s⁻¹	21 min
B3	166 RU	0.000623 s⁻¹	19 min
B4	147 RU	0.000578 s⁻¹	20 min
B5	82 RU	0.000624 s⁻¹	19 min
B6	145 RU	0.000471 s⁻¹	25 min

Molecular target: T1, Human IL2Rγ extracellular domain …
Assay: SPR Biacore 4000, mAb captured by anti-hFc, HBS-ET, 25C
Description: as §1, §2

Binder	100 nM Ag Bound	Kd	koff	kon	t1/2
B1	19 RU	8.61 nM	0.000285 s⁻¹	33100 M⁻¹ s⁻¹	41 min
B2	61 RU	2.51 nM	0.000458 s⁻¹	182000 M⁻¹ s⁻¹	25 min
B3	79 RU	1.29 nM	0.000379 s⁻¹	293000 M⁻¹ s⁻¹	30 min
B4	64 RU	1.41 nM	0.00042 s⁻¹	298000 M⁻¹ s⁻¹	28 min
B5	48 RU	4.91 nM	0.000333 s⁻¹	67900 M⁻¹ s⁻¹	35 min
B6	60 RU	2.02 nM	0.00027 s⁻¹	134000 M⁻¹ s⁻¹	43 min

Molecular target: T2, Macaca fascicularis IL2Rγ extracellular …
Assay: as above
Description: as §1, §2

Binder	100 nM Ag Bound	Kd	koff	kon	t1/2
B1	14 RU	7.37 nM	0.000237 s⁻¹	32200 M⁻¹ s⁻¹	49 min
B2	54 RU	4.01 nM	0.000407 s⁻¹	102000 M⁻¹ s⁻¹	28 min
B3	71 RU	1.44 nM	0.000335 s⁻¹	232000 M⁻¹ s⁻¹	34 min
B4	59 RU	1.74 nM	0.000404 s⁻¹	233000 M⁻¹ s⁻¹	29 min
B5	37 RU	5.16 nM	0.000313 s⁻¹	60600 M⁻¹ s⁻¹	37 min
B6	57 RU	2.45 nM	0.000266 s⁻¹	109000 M⁻¹ s⁻¹	43 min

Molecular target: T2, Macaca fascicularis IL2Rγ extracellular …
Assay: SPR Biacore 4000, mAb captured by anti-hFc, 37C, dissociation in PBS-T pH 6.0
Description: as §3, §4

Binder	100 nM Ag Bound (RU)	koff	t1/2
B1	52 RU	0.00131 s⁻¹	9 min
B2	122 RU	0.00211 s⁻¹	5 min
B3	130 RU	0.00277 s⁻¹	4 min
B4	148 RU	0.00183 s⁻¹	6 min
B5	71 RU	0.00276 s⁻¹	4 min
B6	109 RU	0.00197 s⁻¹	6 min
